Laboratory results: patent US7192728B2, “Screening assays for agents that alter inhibitor of apoptosis (IAP) protein regulation of caspase activity” (The Burnham Institute, priority 1997, dated 2007)
Entries after “also recorded” stand apart in the source; their conditions may differ. Where a SMILES comes first, the peptide text is derived from it. The star is where a group is joined. Cbz = O=C(OCc1ccccc1)*; CH2F = FC*

T1: caspase-3 (Homo sapiens, UniProt P42574)
T1 construct: to produce the 17–20 kDa mature, fully processed large subunit of the active caspase-3 enzyme; a smaller, fully processed, subunit of about 11 kDa; His6; made in house; host or cells: E. coli BL21(DE3)pLysS
T1 sequence (P42574 29-175 limits assumed): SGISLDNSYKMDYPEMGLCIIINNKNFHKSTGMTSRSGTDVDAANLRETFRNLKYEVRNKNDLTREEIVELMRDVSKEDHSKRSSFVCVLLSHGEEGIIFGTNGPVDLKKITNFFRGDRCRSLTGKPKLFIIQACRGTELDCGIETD
T1 sequence (P42574 176-277 limits assumed): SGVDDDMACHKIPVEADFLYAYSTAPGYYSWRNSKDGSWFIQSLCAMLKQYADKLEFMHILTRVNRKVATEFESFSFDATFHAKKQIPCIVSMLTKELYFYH

T2: caspase-7 (Homo sapiens, UniProt P55210)
T2 construct: Purified active caspase concentrations ranged from 0.1 nM to 10 nM; His6; made in house; host or cells: E. coli BL21(DE3)pLysS
T2 sequence (P55210 24-198 limits assumed): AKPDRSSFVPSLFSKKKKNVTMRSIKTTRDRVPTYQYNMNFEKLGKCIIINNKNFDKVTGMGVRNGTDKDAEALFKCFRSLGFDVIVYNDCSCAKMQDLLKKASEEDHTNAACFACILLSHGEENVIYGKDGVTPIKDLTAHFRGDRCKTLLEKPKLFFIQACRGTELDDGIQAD
T2 sequence (P55210 207-303 limits assumed): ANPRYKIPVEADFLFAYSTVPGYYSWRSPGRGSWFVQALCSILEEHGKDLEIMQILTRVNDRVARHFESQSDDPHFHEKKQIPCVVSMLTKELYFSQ

T3: caspase-6 (Homo sapiens, UniProt P55212)
T3 construct: Purified active caspase concentrations ranged from 0.1 nM to 10 nM; His6; made in house; host or cells: E. coli BL21(DE3)pLysS
T3 sequence (P55212 24-179 limits assumed): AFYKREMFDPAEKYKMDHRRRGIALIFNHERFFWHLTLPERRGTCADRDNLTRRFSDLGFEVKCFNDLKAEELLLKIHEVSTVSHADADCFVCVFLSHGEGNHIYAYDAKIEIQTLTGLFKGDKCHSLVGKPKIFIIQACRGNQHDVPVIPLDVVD
T3 sequence (P55212 194-293 limits assumed): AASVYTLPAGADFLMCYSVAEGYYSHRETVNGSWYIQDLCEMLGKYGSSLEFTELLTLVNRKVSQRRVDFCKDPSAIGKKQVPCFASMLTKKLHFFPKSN


Key:
[1] = test system: 293T cells; assay: Bax-induced apoptosis and caspase activation in transfected 293T cells; assay type: cell-based, human; details: 24 hr; Bax alone about 25%; zVAD-fmk 50 μM
Protocol: N-benzyloxycarbonyl-Val-Ala-Asp fluoromethylketone (zVAD-fmk; 50 μM) (Bachem Calif.; Torrance, Calif.) was added immediately after transfection of the Bax plasmid. Transfection efficiency was uniformly 80–90%, as determined by X-Gal staining following cotransfection with pCMV-βGal.
Cells were maintained in culture for 24 hr, then floating and attached cells were harvested and an aliquot was removed and the percent of dead cells was determined by either trypan blue or propidium iodide (PI) dye exclusion assay. A second aliquot was used to assess the percentage of apoptotic cells with subdiploid DNA content by FACS analysis of PI stained, ethanol fixed cells. The remaining cell pellets were lysed in 10 mM HEPES (pH 7.5), 142 mM KCl, 1 mM EGTA, 1 mM DTT, 0.2% NP-40, 0.1 mM PMSF and used for immunoblot analysis or for protease assays.

[2] = test system: HeLa cell nuclei in cytosolic extract; assay: Apoptosis of isolated nuclei in cell-free system (cytochrome c/dATP); details: 0.4 μM protein with 10 μM cytochrome c and 1 mM dATP; 37° C., 60 min; baseline about 15%, cytochrome c/dATP alone >95%
Protocol: (§1) Cells were washed with ice cold buffer A (20 mM Hepes (pH 7.5), 10 mM KCl, 1.5 mM MgCl2, 1 mM EDTA, 1 mM DTT and 0.1 mM PMSF) and suspended in 1 vol buffer A, then incubated on ice for 20 min. 293 cells were disrupted by passage 15× through a 26 gauge needle and Jurkat T cells were disrupted by dounce homogenization in 2 ml using 15 strokes with a pestle B. Cell extracts (10–15 mg total protein/ml) were clarified by centrifugation at 16,000×g for 30 min, then the NaCl concentration was increased by 50 mM. Cytosolic fractions were used immediately or stored frozen at −80° C.
Isolated nuclei were prepared from HeLa cells (Martin et al., supra, 1995). Approximately 5×10^4 to 1×10^5 nuclei were added to 20 μl cytosolic extract and apoptosis was initiated by adding 10 μM horse heart cytochrome c (Sigma, Inc.; St. Louis Mo.) and 1 mM dATP, alone (positive control) or with cytochrome c, dATP and either 0.4 μM GST-XIAP or 0.4 μM GST-Bcl-2. Following incubation at 37° C. for 60 min., nuclei were stained with 1 μg/ml of acridine orange and ethidium bromide and the percentage nuclei with apoptotic features, including extremely condensed chromatin and the genesis of fragmentation of nuclei, was determined.

[3] = test system: DEVD-pNA hydrolysis activity in Jurkat T cell cytosolic extracts; assay: Cytochrome c/dATP-induced caspase activation (DEVD-pNA hydrolysis) in Jurkat T cell cytosolic extracts; assay type: biochemical; details: for DEVD-pNA hydrolysis, ΔA405 after 15 min: untreated ≈0.02; for DEVD-pNA hydrolysis, ΔA405 after 20 min: untreated ≈0.025
Protocol: as §1
(§2) Caspase activity was assayed by release of either 7-amino-4-trifluoromethyl-coumarin (AFC) or p-nitroanilide (pNA) from benzylyoxycarbonyl-DEVD (SEQ ID NO: 2) or benzylyoxycarbonyl-YVAD (SEQ ID NO: 3) synthetic peptides using a Molecular Devices Spectromax 340 for AFC labeled peptides or Perkin/Elmer LS50B for pNA labeled peptides (see Example II; see, also, Zhou et al., supra, 1997). Cytosolic extracts from 293 cells or Jurkat T cells were used directly (negative control) or were treated with 1 μM cytochrome c and 1 mM dATP or with cytochrome c, dATP and 0.2 μM GST-XIAP. Additional control reactions were performed by substituting 2 μM GST-Bcl-2, GST-Bax, GST-NM23 or GST-CD40 cytosolic domain, or 5 μM His6-S5a protein for GST-XIAP. DEVD-pNA hydrolysis was measured at various times and multiple experiments were performed using several different GST-XIAP preparations.

[4] = test system: DEVD-pNA hydrolysis activity in 293 cell cytosolic extracts; assay: Cytochrome c/dATP-induced caspase activation (DEVD hydrolysis) in 293 cell cytosolic extracts; assay type: biochemical, human; details: for DEVD-pNA hydrolysis, ΔA405 after 15 min: 293 extracts + cytochrome c/dATP, GST-XIAP 0.2 μM, GST controls 2 μM, His6-S5a 5 μM, untreated ≈0.01
Protocol: as §1, §2

[5] = target: T1, caspase-3; assay: Inhibition of purified recombinant caspase-3, DEVD substrate hydrolysis and progress curves; assay type: biochemical; details: DEVD-pNA hydrolysis
Protocol: Purified recombinant caspase-1, caspase-3, caspase-6, caspase-7 or caspase-8 were incubated with DEVD-pNA, either alone or with a 10-fold to 50-fold molar excess of GST-XIAP ([…]) and substrate hydrolysis was measured. Purified active caspase concentrations ranged from 0.1 nM to 10 nM. XIAP concentration ranged from 0.1 nM to 500 nM. Assays were performed in caspase buffer (50 mM Tris, pH 7.4, 100 mM NaCl, 10% sucrose, 5–10 mM DTT, 1 mM EDTA and 0.1% CHAPS).
Equilibria were determined from progress curves when substrate hydrolysis reached a steady-state; slopes were calculated by curve fit analysis using the cricket graph program. Experiments were performed using purified recombinant caspase-3, caspase-6, or caspase-7. DEVD-AFC hydrolysis was measured using 0.1 nM caspase and a range of concentrations (0.2 to 12 μM) of recombinant XIAP (rXIAP). […] Average ratio velocities (vi/vo, where “vi” indicates presence of GST-XIAP and “vo” indicates absence of GST-XIAP) were determined.
Caspase activity was determined essentially as described in Example II, using the benzylyoxycarbonyl-DEVD-AFC (SEQ ID NO: 2) substrate and was assayed at 37° C. using the Perkin-Elmer LS50B fluorometric plate reader in the kinetic mode with excitation and emission wavelengths of 400 nm and 505 nm, respectively. […] Reactions were performed in caspase buffer (50 mM Hepes, 100 mM NaCl, 1 mM EDTA, 0.1% CHAPS, 10% sucrose, 5 mM DTT). The inhibition constant, Ki, was calculated as described (Zhou et al., supra, 1997). Immunoblot analysis was performed as described in Example I.B.3.

[6] = target: T2, caspase-7; assay: Inhibition of purified recombinant caspase-7, DEVD substrate hydrolysis and progress curves; assay type: biochemical; details: DEVD-pNA hydrolysis
[7] = target: T1, caspase-3; assay: GST pull-down binding to caspase-3; details: glutathione-Sepharose beads, immunoblot
Protocol: (§3) Following incubation at 4° C. for 60 min, the beads were removed by centrifugation and washed twice with 100 vol 50 mM Tris (pH 7.5), 150 mM KCl, 2 mM DTT and 0.025% Triton-X100, then subjected to SDS-PAGE and immunoblot assay (see Example I.B.3).

[8] = target: T2, caspase-7; assay: GST pull-down binding to caspase-7; details: glutathione-Sepharose beads, immunoblot
Protocol: as §3

[9] = target: T3, caspase-6; assay: GST pull-down binding to caspase-6; details: glutathione-Sepharose beads, immunoblot

Row | inhibition of caspase-3 in vitro (in words) [5] | inhibition of caspase-7 in vitro (in words) [6] | binding of caspase-6 (in words) [9] | Molecule | apoptotic cells (PI staining) in Bax expressing cells [1] | apoptotic nuclei [2] | DEVD-pNA hydrolysis, ΔA405 after 15 min [3] | DEVD-pNA hydrolysis, ΔA405 after 20 min [3] | DEVD-pNA hydrolysis, ΔA405 after 15 min [4] | binding of caspase-3 (in words) [7] | binding of caspase-7 (in words) [8] | DEVD hydrolysis in activated 293 cell cytosolic extracts (in words) ([4]; 3 μM, extracts activated 30 min with cytochrome c and dATP)
1 | – | – | – | CC(C)[C@H](NC(=O)OCc1ccccc1)C(=O)N[C@@H](C)C(=O)N[C@@H](CC(=O)O)C(=O)CF [zVAD-fmk, N-benzyloxycarbonyl-Val-Ala-Asp fluoromethylketone, reference compound] (Cbz-Val-Ala-Asp-CH2F) | about 5% | – | – | – | – | – | – | –
2 | – | – | – | GST-Bcl-2: recombinant control protein, GST fusion of Bcl-2 [reference compound] | – | greater than 95% | ≈ 0.09 | ≈ 0.1 | ≈ 0.1 | – | – | –
3 | had no effect | had no effect | No caspase binding was observed | GST-CD40 cytosolic domain: recombinant control protein, GST fusion of CD40 cytosolic domain (protein, not fully specified; also: GST fusion partner not in chain) KKVAKKPTNKAPHPKQEPQEINFPDDLPGSNTAAPVQETLHGCQPVTQEDGKESRISVQERQ | – | – | ≈ 0.09 | ≈ 0.1 | ≈ 0.1 | No caspase binding was observed; also recorded: did not bind | No caspase binding was observed; also recorded: did not bind | –
4 | – | – | – | c-IAP-2(BIR): construct comprising the BIR domains of c-IAP-2 (positions 1 to 335) (protein, left off: a dimerising Fc or GST) MNIVENSIFLSNLMKSANTFELKYDLSCELYRMSTYSTFPAGVPVSERSLARAGFYYTGVNDKVKCFCCGLMLDNWKRGDSPTEKHKKLYPSCRFVQSLNSVNNLEATSQPTFPSSVTNSTHSLLPGTENSGYFRGSYSNSPSNPVNSRANQDFSALMRSSYHCAMNNENARLLTFQTWPLTFLSPTDLAKAGFYYIGPGDRVACFACGGKLSNWEPKDNAMSEHLRHFPKCPFIENQLQDTSRYTVSNLSMQTHAARFKTFFNWPSSVLVNPEQLASAGFYYVGNSDDVKCFCCDGGLRCWESGDDPWVQHAKWFPRCEYLIRIKGQEFIRQVQ | – | – | – | – | – | bound | bound | inhibited DEVD hydrolysis
